Where two headings read alike, the source gives them in different places.

The target in data set [1] is T1, PFE (Pseudomonas fluorescens esterase; aryl esterase) (Pseudomonas fluorescens, UniProt P22862, L30P).
T1 sequence (P22862 2-272 L30P): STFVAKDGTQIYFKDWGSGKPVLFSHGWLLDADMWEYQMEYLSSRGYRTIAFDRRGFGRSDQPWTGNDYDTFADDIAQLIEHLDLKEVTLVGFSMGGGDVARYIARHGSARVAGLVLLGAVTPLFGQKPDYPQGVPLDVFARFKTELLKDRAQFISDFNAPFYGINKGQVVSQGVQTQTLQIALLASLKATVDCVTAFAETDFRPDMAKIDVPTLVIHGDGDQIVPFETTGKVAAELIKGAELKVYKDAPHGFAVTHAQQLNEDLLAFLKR
To be noted: pH 5.5, 23 °C.

Data set [2] concerns the target T1, PFE (Pseudomonas fluorescens esterase; aryl esterase). The note with it: pH 5.5, 23 °C; estimated upper limit.
The target in data set [3] is L29P variant of Pseudomonas fluorescens (SIK WI) aryl esterase (PFE) (Pseudomonas fluorescens SIK WI). Nature of the data set: crystal structure.
The test system of the next data set is O=C1CCCCCO1. The data set is described as follows: purified protein. The format is biochemical, Pseudomonas fluorescens. To be noted: pH 7.2, BES, 23 °C.

As usually defined, the Km is the substrate concentration at which the rate is half of its maximum. As for `CC(=O)OO` [peracetic acid], the Km is 41 ± 5 µM in data set [1] and less than 3 µM in data set [2].
In general, stoichiometry N refers to the number of molecules, sites or subunits per partner or assembly. “L29P variant of Pseudomonas fluorescens (SIK WI) aryl esterase (PFE) (enzyme)” showed a stoichiometry N in data set [3] of 6.
The term kcat denotes the number of substrate molecules converted per active site and unit of time at saturation. Usually kcat/Km stands for the turnover number divided by the Michaelis constant. Take “PFE (Pseudomonas fluorescens esterase; aryl esterase) (Pseudomonas fluorescens; L30P)”: in the data set with O=C1CCCCCO1, the Km was 39000 ± 1000 µM, the kcat is 11 ± 1 s⁻¹ and the kcat/Km turned out to be 280 M⁻¹ s⁻¹.

These data come from PMC2855817 (Biochemistry, 2010).
